Laboratory results: US20220370565A1 (SHANGHAI INSTITUTE OF BIOLOGICAL PRODCCTS CO., LTD., priority 2019, published 2022)

Legend:
[1] = test system: human gastric cancer NCI-N87; assay: subcutaneous transplanted tumors of human gastric cancer NCI-N87 in nude mice; type: in vivo; conditions: D 0, 3, 7, 10, 14, 17; for Mean tumor volume D 0 SEM: baseline at grouping
Description: (§1) The indicators of tumor inhibition experiments in mice were to investigate the effect of drugs on tumor growth, and the specific indicators were T/C % or the rate of tumor growth inhibition TGI (%).
(§2) The diameter of the tumor was measured with a vernier caliper twice a week, and the formula for calculating the tumor volume (V) was: V=½xaxb^2, wherein a and b represented the length and width, respectively.
(§3) T/C(%)=(T−T0)/(C−C0)×100,
(§4) If a tumor was smaller than the initial volume, i.e., T<T0 or C<C0, it was defined as partial regression (PR) of the tumor; if a tumor disappeared completely, it was defined as complete regression (CR) of the tumor.
(§5) At the end of the experiment (e.g., D21), reaching the experimental endpoint, or the tumor volume reached 1,500 mm^3, the animals were sacrificed after CO2 anesthesia, and then the tumors were dissected and photographed.
Nude mice were subcutaneously (SC) inoculated with 6×10^6 human gastric cancer NCI-N87 cells. After the tumor grew to 100-150 mm^3, the animals were grouped according to tumor volume (D0). Mice were administered subcutaneously (SC) or intravenously (IV), twice a week (BIW); the administration volume was 10 mL/kg; the solvent group was administered with the same volume of “solvent” (normal saline); specific dosage and administration regimen were shown in Table 1. The tumor volumes were measured twice a week, the mice were weighed, and the data were recorded.
(§6) Two-tailed Student's t-test was used to compare tumor volumes between the two groups, and P<0.05 was defined as a statistically significant difference.

human liver cancer Huh-7 = assay: subcutaneous transplanted tumors of human liver cancer Huh-7 in nude mice; type: in vivo; conditions: for % T/C D 17 / Mean tumor volume D 17 SEM / Tumor inhibition rate % D 17 / Mean tumor volume D 0 SEM: D 0, 3, 7, 10, 14; for Mean tumor volume D 0 SEM: baseline at grouping
Description: as §1, §2, §3, §4, §5
Nude mice were subcutaneously inoculated with 6×10^6 human liver cancer Huh-7 cells. After the tumor grew to 100-150 mm^3, the animals were grouped according to tumor volume (D0). Mice were administered subcutaneously (SC) or intravenously (IV), twice a week (BIW); the administration volume was 10 mL/kg; the solvent group was administered with the same volume of “solvent” (normal saline); specific dosage and administration regimen were shown in Table 2. The tumor volumes were measured twice a week, the mice were weighed, and the data were recorded.
as §6

NCI-H292 = assay: SRB method, proliferation of tumor cells in vitro, NCI-H292; type: cell-based; conditions: NCI-H292 (Lung cancer), 120 hours of drug action
Description: (§7) Sulfonyl rhodamine B protein staining method (SRB method) was used to evaluate the effects of using PEG-interferon alone or in combination with other drugs on the proliferation of tumor cells in vitro.
(§8) A certain number of cells in logarithmic growth phase were seeded in 96-well culture plates. After 24 hours of adherent growth, different concentrations (final concentrations of 1, 3, 10, 30, 100, 300, 1,000, 3,000, 10,000 nM) of drugs were added. After 120 hours of drug action, cells were fixed with trichloroacetic acid. Then stained with SRB solution; finally, Tris solution was added to dissolve SRB, and OD value was measured at a wavelength of 510 nm by a microplate reader.

[2] = test system: human breast cancer BT-474; assay: subcutaneous transplanted tumors of human breast cancer BT-474 in nude mice; type: in vivo; conditions: for % T/C D 20 / Mean tumor volume D 20 SEM / Tumor inhibition rate % D 20 / Mean tumor volume D 0 SEM: D 0, 3, 7, 10, 14, 17; for Mean tumor volume D 0 SEM: baseline at grouping
Description: as §1, §2, §3, §4, §5
Nude mice were subcutaneously inoculated with 1×10^7 human breast cancer BT-474 cells. After the tumor grew to 100-150 mm^3, the animals were grouped according to tumor volume (D0). Mice were administered subcutaneously (SC) or intravenously (IV), twice a week (BIW); the administration volume was 10 mL/kg; the solvent group was administered with the same volume of “solvent” (normal saline); specific dosage and administration regimen were shown in Table 3. The tumor volumes were measured twice a week, the mice were weighed, and the data were recorded.
as §6

half-life in rats = type: in vivo
Hep3B = assay: SRB method, proliferation of tumor cells in vitro, Hep3B; type: cell-based; conditions: Hep3B (Liver cancer), 120 hours of drug action
Description: as §7, §8

N87 = assay: SRB method, proliferation of tumor cells in vitro, N87; type: cell-based, human; conditions: N87 (Gastric cancer), 120 hours of drug action
Description: as §7, §8

HCC1806 = assay: SRB method, proliferation of tumor cells in vitro, HCC1806; type: cell-based; conditions: HCC1806 (Breast cancer), 120 hours of drug action
Description: as §7, §8

A549 = assay: SRB method, proliferation of tumor cells in vitro, A549; type: cell-based; conditions: A549 (Lung cancer), 120 hours of drug action
Description: as §7, §8

Huh-7 = assay: SRB method, proliferation of tumor cells in vitro, Huh-7; type: cell-based, human; conditions: Huh-7 (Liver cancer), 120 hours of drug action
Description: as §7, §8

HGC27 = assay: SRB method, proliferation of tumor cells in vitro, HGC27; type: cell-based; conditions: HGC27 (Gastric cancer), 120 hours of drug action
Description: as §7, §8

MCF-7 = assay: SRB method, proliferation of tumor cells in vitro, MCF-7; type: cell-based; conditions: MCF-7 (Breast cancer), 120 hours of drug action
Description: as §7, §8

[3] = half-life in cynomolgus monkeys; type: in vivo
BT474 = assay: SRB method, proliferation of tumor cells in vitro, BT474; type: cell-based, human; conditions: BT474 (Breast cancer), 120 hours of drug action
Description: as §7, §8
Breast cancer cells BT474 were used, and the corresponding inhibition rate (%) was calculated.

HepG2 = assay: SRB method, proliferation of tumor cells in vitro, HepG2; type: cell-based; conditions: HepG2 (Liver cancer), 120 hours of drug action
Description: as §7, §8

AGS = assay: SRB method, proliferation of tumor cells in vitro, AGS; type: cell-based; conditions: AGS (Gastric cancer), 120 hours of drug action
Description: as §7, §8

[4] = test system: metastatic renal cancer and multiple myeloma; conditions: high-dose (500 μg/day) injection, patients; cited from earlier work
hairy cell leukemia = hairy cell leukemia patients; cited from earlier work
[5] = specific activity in vitro
[6] = Avastin 10 mg/kg IV (first dose doubled)
[7] = PEGylated (PEG) interferon 0.1 mg/kg SC
[8] = PEGylated (PEG) interferon 1 mg/kg SC
[9] = PEGylated (PEG) interferon 10 mg/kg SC, 2 times a week, 6 times in total, D20
[10] = PEGylated (PEG) interferon 10 mg/kg SC

Molecule: Avastin: Bevacizumab injection, commercially available monoclonal antibody purchased from Roche Pharmaceuticals [reference compound]
- % T/C D 21 [1, 6]: 51%
- Mean tumor volume D 21 SEM [1, 6]: 561.1 ± 53.4 mm^3
- Tumor inhibition rate % D 21 [1, 6]: 49%
- Mean tumor volume D 0 SEM [1, 6]: 115.7 ± 2.7 mm^3
- % T/C D 17 (human liver cancer Huh-7; [6]): 60%
- Mean tumor volume D 17 SEM (human liver cancer Huh-7; [6]): 1791.6 ± 105.7 mm^3
- Tumor inhibition rate % D 17 (human liver cancer Huh-7; [6]): 40%
- Mean tumor volume D 0 SEM (human liver cancer Huh-7; [6]): 122.7 ± 1.8 mm^3

B1: PEGylated (PEG) interferon: recombinant human interferon α1b modified with a single PEG of about 20,000 Daltons; lyophilized powder injection, Shanghai Institute of Biological Products (protein, UniProt P01562 24-189, looked up)
Interferon alpha-1/13: CDLPETHSLDNRRTLMLLAQMSRISPSSCLMDRHDFGFPQEEFDGNQFQKAPAISVLHELIQQIFNLFTTKDSSAAWDEDLLDKFCTELYQQLNDLEACVMQEERVGETPLMNADSILAVKKYFRRITLYLTEKKYSPCAWEVVRAEIMRSLSLSTNLQERLRRKE
modifications: single 20 kDa PEG
notes: recombinant human interferon α1b modified with a single PEG of about 20,000 Daltons; lyophilized powder injection, Shanghai Institute of Biological Products
- Inhibition rate (%)@100 μg/mL (NCI-H292): 41.5%
- % T/C D 20 [2, 7]: 34%
- Mean tumor volume D 20 SEM [2, 7]: 422.2 ± 97.0 mm^3
- Tumor inhibition rate % D 20 [2, 7]: 66%
- Mean tumor volume D 0 SEM [2, 7]: 91.2 ± 1.3 mm^3
- tumors regressed partially (PR) ([2]; PEGylated (PEG) interferon 1 mg/kg SC, 2 times a week, 6 times in total, D20): 3/6
- % T/C D 20 [2, 8]: 2%
- Mean tumor volume D 20 SEM [2, 8]: 115.7 ± 26.1 mm^3
- Tumor inhibition rate % D 20 [2, 8]: 98%
- Mean tumor volume D 0 SEM [2, 8]: 94.1 ± 4.3 mm^3
- tumors regressed completely (CR) [2, 9]: 2/6
- tumors regressed partially (PR) [2, 9]: 4/6
- tumors regressed partially (PR) ([2]; PEGylated (PEG) interferon 10 mg/kg SC, 6 times in total, end of the experiment (D60)): 4/6
- % T/C D 20 [2, 10]: −56%
- Mean tumor volume D 20 SEM [2, 10]: 41.4 ± 15.7 mm^3
- Tumor inhibition rate % D 20 [2, 10]: 156%
- Mean tumor volume D 0 SEM [2, 10]: 94.8 ± 4.2 mm^3
- half-life (half-life in rats): 13.98 h
- Inhibition rate (%)@100 μg/mL (Hep3B): 58.4%
- Inhibition rate (%)@100 μg/mL (N87): 32.5%
- Inhibition rate (%)@100 μg/mL (HCC1806): 32.6%
- Inhibition rate (%)@100 μg/mL (A549): 33.7%
- Inhibition rate (%)@100 μg/mL (Huh-7): 29.3%
- Inhibition rate (%)@100 μg/mL (HGC27): 52.3%
- % T/C D 21 [1, 7]: 81%
- Mean tumor volume D 21 SEM [1, 7]: 817.1 ± 84.9 mm^3
- Tumor inhibition rate % D 21 [1, 7]: 19%
- Mean tumor volume D 0 SEM [1, 7]: 112.7 ± 3.9 mm^3
- % T/C D 21 [1, 8]: 68%
- Mean tumor volume D 21 SEM [1, 8]: 712.4 ± 68.4 mm^3
- Tumor inhibition rate % D 21 [1, 8]: 32%
- Mean tumor volume D 0 SEM [1, 8]: 117.4 ± 2.8 mm^3
- % T/C D 21 [1, 10]: 45%
- Mean tumor volume D 21 SEM [1, 10]: 506.1 ± 33.0 mm^3
- Tumor inhibition rate % D 21 [1, 10]: 55%
- Mean tumor volume D 0 SEM [1, 10]: 112.3 ± 2.3 mm^3
- Inhibition rate (%)@100 μg/mL (MCF-7): 24.2%
- half-life [3]: 22.03 ± 3.32 h
- Inhibition rate (%)@100 μg/mL (BT474): 19.6%
- Inhibition rate (%)@100 μg/mL (HepG2): 20.2%
- Inhibition rate (%)@100 μg/mL (AGS): 44.0%
- % T/C D 17 (human liver cancer Huh-7; [7]): 110%
- Mean tumor volume D 17 SEM (human liver cancer Huh-7; [7]): 3188.0 ± 282.5 mm^3
- Tumor inhibition rate % D 17 (human liver cancer Huh-7; [7]): −10%
- Mean tumor volume D 0 SEM (human liver cancer Huh-7; [7]): 117.7 ± 2.0 mm^3
- % T/C D 17 (human liver cancer Huh-7; [8]): 107%
- Mean tumor volume D 17 SEM (human liver cancer Huh-7; [8]): 3110.6 ± 438.0 mm^3
- Tumor inhibition rate % D 17 (human liver cancer Huh-7; [8]): −7%
- Mean tumor volume D 0 SEM (human liver cancer Huh-7; [8]): 119.8 ± 2.6 mm^3
- % T/C D 17 (human liver cancer Huh-7; [10]): 91%
- Mean tumor volume D 17 SEM (human liver cancer Huh-7; [10]): 2681.9 ± 435.7 mm^3
- Tumor inhibition rate % D 17 (human liver cancer Huh-7; [10]): 9%
- Mean tumor volume D 0 SEM (human liver cancer Huh-7; [10]): 123.8 ± 1.9 mm^3
- inhibitory effect on the growth of subcutaneous transplanted tumors (human liver cancer Huh-7; PEGylated (PEG) interferon 0.1, 1, 10 mg/kg, SC, 2 times a week, 5 times in total): no significant inhibitory effect

B2: ordinary interferon α1b: unmodified recombinant human interferon α1b, 166 amino acids, SEQ ID No.: 1 (protein, UniProt P01562 24-189, looked up)
Interferon alpha-1/13: B1 Interferon alpha-1/13
- half-life (half-life in rats): 1.84 h
- adverse reactions compared with other ordinary interferons [4]: milder
- therapeutic effect [4]: certain therapeutic effect
- half-life [3]: 3.27 ± 1.48 h
- adverse reaction (hairy cell leukemia): only a short-term low-grade fever
- effective rate (hairy cell leukemia): 63.64%
- remission rate (hairy cell leukemia): 36.36%
- specific activity relative to ordinary interferon α2a and 2b [5]: 10%
